Measured values as given in patent US20130345401.

Tested on: T1, human fibrinogen produced in a silkworm (recombinant fibrinogen extracted from cocoons of β42-3×α/γ106-2×IM transgenic silkworms)
T1 sequence 1: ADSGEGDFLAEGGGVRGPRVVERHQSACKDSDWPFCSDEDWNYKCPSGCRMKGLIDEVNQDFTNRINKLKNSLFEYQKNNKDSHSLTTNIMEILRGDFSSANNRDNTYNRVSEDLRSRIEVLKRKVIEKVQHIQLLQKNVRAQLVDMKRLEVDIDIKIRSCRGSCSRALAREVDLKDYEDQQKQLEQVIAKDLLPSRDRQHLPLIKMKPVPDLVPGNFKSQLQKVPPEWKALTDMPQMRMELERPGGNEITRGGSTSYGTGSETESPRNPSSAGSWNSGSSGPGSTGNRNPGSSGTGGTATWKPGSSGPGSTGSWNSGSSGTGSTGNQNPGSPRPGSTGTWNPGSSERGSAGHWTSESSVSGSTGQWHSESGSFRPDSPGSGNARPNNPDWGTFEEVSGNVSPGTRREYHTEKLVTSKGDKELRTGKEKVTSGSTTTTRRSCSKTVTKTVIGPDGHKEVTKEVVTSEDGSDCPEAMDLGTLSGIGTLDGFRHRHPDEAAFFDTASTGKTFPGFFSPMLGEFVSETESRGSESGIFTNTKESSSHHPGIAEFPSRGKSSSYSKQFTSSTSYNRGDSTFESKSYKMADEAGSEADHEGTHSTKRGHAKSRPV
T1 sequence 2: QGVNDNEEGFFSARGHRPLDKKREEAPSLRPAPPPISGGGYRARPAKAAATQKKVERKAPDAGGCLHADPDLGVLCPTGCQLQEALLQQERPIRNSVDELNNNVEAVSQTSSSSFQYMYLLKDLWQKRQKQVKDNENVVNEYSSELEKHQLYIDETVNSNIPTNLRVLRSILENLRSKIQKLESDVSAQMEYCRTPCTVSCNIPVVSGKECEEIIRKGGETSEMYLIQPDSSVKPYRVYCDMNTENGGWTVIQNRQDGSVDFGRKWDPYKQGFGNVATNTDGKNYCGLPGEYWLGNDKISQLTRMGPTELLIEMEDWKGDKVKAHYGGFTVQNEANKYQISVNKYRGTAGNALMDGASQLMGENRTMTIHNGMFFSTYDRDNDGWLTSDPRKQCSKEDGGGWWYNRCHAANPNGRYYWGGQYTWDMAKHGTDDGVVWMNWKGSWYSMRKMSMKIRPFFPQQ
T1 sequence 3: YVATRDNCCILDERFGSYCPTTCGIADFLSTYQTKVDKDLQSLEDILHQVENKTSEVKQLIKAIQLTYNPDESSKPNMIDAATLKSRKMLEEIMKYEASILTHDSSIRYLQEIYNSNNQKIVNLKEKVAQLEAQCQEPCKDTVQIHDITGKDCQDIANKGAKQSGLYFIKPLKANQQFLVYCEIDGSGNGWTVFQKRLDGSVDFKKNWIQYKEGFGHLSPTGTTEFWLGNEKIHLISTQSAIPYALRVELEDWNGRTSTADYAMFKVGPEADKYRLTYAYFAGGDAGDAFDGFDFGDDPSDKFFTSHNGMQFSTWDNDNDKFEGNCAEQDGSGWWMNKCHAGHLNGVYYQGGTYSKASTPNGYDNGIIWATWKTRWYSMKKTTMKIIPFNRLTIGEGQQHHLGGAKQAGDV

## thrombin (Calbiochem)
  coagulation (fibrin clot formation): viscosity of the liquid after incubation with 10 U/ml thrombin at 37° C. for 1 hour: viscosity of the liquid increased to an extent where, when the liquid was sucked into a pipette, the liquid hardly dropped from the tip of the pipette
